Test results as given in article PMC12262184, “Structural insights into transcriptional regulation by the helicase RECQL5” (Nature Structural & Molecular Biology, 2025).

Target: RPB1 subunit of human RNA polymerase II (human (endogenous in HeLa), UniProt P24928 1-1970)
Assay: cryo-EM structure; EC_(REC-Apo): Pol II on anti-RPB1-protein G resin incubated with tenfold excess of nucleic acid scaffold, then tenfold excess of RECQL5_(1–620)-D157A, no nucleotide; eluted with RPB1 triheptapeptide repeat; crosslinked with 0.02% glutaraldehyde; graphene oxide grids
Details: both partners purified

B1: RECQL5_(1–620)-D157A (domain or fragment)
chain: MSSHHTTFPFDPERRVRSTLKKVFGFDSFKTPLQESATMAVVKGNKDVFVCMPTGAGKSLCYQLPALLAKGITIVVSPLIALIQDQVDHLLTLKVRVSSLNSKLSAQERKELLADLEREKPQTKILYITPEMAASSSFQPTLNSLVSRHLLSYLVVAEAHCVSQWGHDFRPDYLRLGALRSRLGHAPCVALTATATPQVQEDVFAALHLKKPVAIFKTPCFRANLFYDVQFKELISDPYGNLKDFCLKALGQEADKGLSGCGIVYCRTREACEQLAIELSCRGVNAKAYHAGLKASERTLVQNDWMEEKVPVIVATISFGMGVDKANVRFVAHWNIAKSMAGYYQESGRAGRDGKPSWCRLYYSRNDRDQVSFLIRKEVAKLQEKRGNKASDKATIMAFDALVTFCEELGCRHAAIAKYFGDALPACAKGCDHCQNPTAVRRRLEALERSSSWSKTCIGPSQGNGFDPELYEGGRKGYGDFSRYDEGSGGSGDEGRDEAHKREWNLFYQKQMQLRKGKDPKIEEFVPPDENCPLKEASSRRIPRLTVKAREHCLRLLEEALSSNRQSTRTADEADLRAKAVELEHETFRNAKVANLYKASVLKKVADIHRASKDGQPYDM
notes: RECQL5 helicase, human, residues 1-620 (helicase D1 and D2 subdomains, RQC domain, IRI module with αN helix and KIX domain); lacks the unstructured region and the SRI domain; The purification is described for GST-tagged RECQL5_(1–620) in general; Used without nucleotide in EC_(REC-Apo); also called truncated RECQL5 construct; source: E. coli BL21-CodonPlus (DE3)-RIL, purified (glutathione …)
binding result: binds
